Test results from paper PMC5700101.

Target: PBD–GFP (PBD of Polo, amino acids 350–576, C-terminally fused to GFP10) (UniProt P52304)
Test: BRET
Details: live HEK293T cells; fixed amount of Luc-KD vector, increasing PBD–GFP vector; Map205 fragment co-transfected; p-value < 0.0001; parent: 0.197

- other: BRET50: 2.49 GFP/Luc
Substance: Luc-KD (KD–IDL of Polo, amino acids 1–349, N-terminally fused to RLucII), KD^WT (from UniProt P52304) NLS7A
